Assay results: US20250221936A1, “ENGINEERED HEMICHANNELS, ENGINEERED VESICLES, AND USES THEREOF” (VIRGINIA TECH INTELLECTUAL PROPERTIES, INC., priority 2018, published 2025)
Entries after “also recorded” stand apart in the source; their conditions may differ.

Columns and labels:
adult mouse hearts = test: Langendorff ischemia-reperfusion (I/R) injury, LV contractility; settings: for recovery of LV contractile performance during reperfusion: pre-ischemic 20-minute peptide infusion, 20 min ischemia, 40 min reperfusion
Protocol: Male, 3-month-old, body weight 25±5 g C57BL/6 mice were used for this study and obtained from Charles River. Animals were randomly assigned to experimental groups and Left ventricular (LV) function was measured and myocardial ischemia-reperfusion injury (I/R) was induced as previously described^23. Briefly, 15 minutes after the injection of heparin at a dose of 200U/10 g body weight, the mouse was anesthetized by inhalation of isoflurane vapor and subjected to cervical dislocation upon the cessation of respiration. Thoracotomy was immediately performed and the heart excised. The heart was arrested in ice-cold Krebs-Henseleit (KH) buffer (in mM: 25 NaHCO3, 0.5 EDTA, 5.3 KCl, 1.2 MgSO4, 0.5 pyruvate, 118 NaCl, 10 glucose, 2.5 CaCl2). The aorta was isolated and cannulated in a Langendorff perfusion system. The heart was then perfused at a constant pressure of 75 mmHg with KH buffer, which was continually bubbled with 5% CO2/95% O2 at 37° C. Effluent from the Thebesian veins was drained by a thin polyethylene tube (PE-10) pierced through the apex of the LV. A water-filled balloon made of polyvinylchloride film was inserted in the LV and connected to a blood pressure transducer (Harvard Apparatus, 733866, MA). After a 30-minute stabilization period, a balloon volume (BV) generating an LV end-diastolic-pressure (EDP) of 0 mmHg, was determined for the heart. The BV was then increased stepwise up through 1, 2, 5, 8, 10, 12, 15, 18, 20, 25, 30 μl increments of 1-5 μl and contractile performance were recorded for 10 seconds at each step. The indexes of cardiac function were amplified by a Transducer Amplifier Module (Harvard Apparatus, 730065, MA). Data was recorded and analyzed using PowerLab 4/35 (ADInstruments, PL3504, CO) and LabChart V7 (ADInstruments, CO). The BV was then adjusted to set EDP at about 8-10 mmHg and held constant during the ensuing steps of the protocol. Baseline function (determined by EDP at about 8-10 mmHg) was recorded for 5 minutes. The perfused beating heart were then treated with freshly prepared peptide stocks (0.2 mM), which were infused using syringe pump (Kent Sci, CT) into the perfusion buffer in a mixing chamber above the heart at 5% of coronary flow rate, to deliver final concentrations of 10-50 μM or equivalent vehicle for 20 minutes. At the end of the peptide infusion period hearts were subjected to global, no-flow normothermic ischemia by turning off the perfusion flow for 20 min, followed by a reperfusion phase for 40 min. BV was retaken through the stepwise sequence of 1-5 μl increments between 1 and 30 μl, with contractile performance again being recorded for 10 seconds at each step. Cardiac LV function was recorded throughout the procedure. In the case of post-ischemic treatment with alpha CT11 peptide, peptide infusion was begun at the initiation of the reperfusion phase, continued for 20 minutes and then contractile function by BV increments was taken as per the other hearts. A set of hearts were freeze-clamped immediately after peptide infusion for Western blotting. The protocol is illustrated in FIG. 9.

[1] = biological target: T1, PKC-ε phosphorylation of Cx43-CT substrate at Ser368 (Rattus norvegicus, UniProt P08050); test: PKC-ε Cx43 CT S368 phosphorylation assay; format: biochemical; settings: peptides at 20 μM
T1 construct: substrate (Cx43-CT: amino acids 255 to 382); GST (N); made in house; host or cells: E. coli BL21 (Cx43 CT); PKC-ε purchased (Life, 37717L)
T1 sequence (P08050 255-382): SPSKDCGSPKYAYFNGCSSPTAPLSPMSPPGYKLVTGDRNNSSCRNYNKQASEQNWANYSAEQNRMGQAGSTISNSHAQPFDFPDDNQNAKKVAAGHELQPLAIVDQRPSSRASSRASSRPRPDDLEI
Protocol: PKC assay conditions were used to evaluate the PKC-ε phosphorylation of Cx43-CT substrate at Ser368 as we have described previously, with modifications 11. 400 ng/ml […] (Life, 37717L, Carlsbad, CA) was pre-diluted in enzyme dilution buffer (10 mM HEPES pH7.4, 0.01% CHAPS and 5 mM DTT) and assayed in 20 mM HEPES pH7.4, 10 mM/L MgCl2, 0.1 mM EGTA, 1× lipid mix (200 μg/ml phosphatidylserine (Avanti Polar Lipids 840032C),^20 μg/ml Diacylglycerol (Avanti Polar Lipids), 1 mM HEPES pH7.4, 0.03% CHAPS), 500 µM ATP (Sigma, A6419) and 14 μg/ml Cx43-CT substrate. Kinase assay buffer was supplemented with peptides to produce final concentrations of the reaction constituents, as indicated in figure legends. The mixture was incubated at 37° C. for 12 minutes and quenched by addition of LDS sample loading buffer (Bio Rad, 1610791). “XT sample buffer” is what was shown on the product label, whereas the component is similar as regular LDS buffer, containing about 5-10% lithium dodecyl sulphate. The reaction was Western blotted for pS368 Cx43 using the Phospho-Connexin43 (Ser368) antibody from Cell Signaling. Proteins were eluted off by stripping buffer (Millipore 2504) and re-probed for total Cx43 using the Sigma anti-rabbit antibody. Percent phosphorylation (% P) was quantified using Equation 1 and normalized with control group (PKC+, no peptide added).

ZO-1 PDZ2 = biological target: T2, ZO-1 PDZ2 (Homo sapiens, UniProt Q07157); test: Protein thermal shift assay, ZO-1 PDZ2; format: binding; settings: 500 μg/ml protein, 25-100 μM peptide
T2 construct: the second of the three PDZ (PDZ2) domains of ZO-1; made in house; host or cells: E. coli BL21
T2 sequence (Q07157 186-264 limits assumed): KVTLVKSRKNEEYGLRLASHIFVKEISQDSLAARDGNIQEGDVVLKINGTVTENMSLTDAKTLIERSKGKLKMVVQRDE
Protocol: (§1) Thermal stability of recombinant GST-PDZ2 or Cx43 CT in the presence or absence of peptides was determined in a 96-well format. Each assay well was composed of 500 μg/ml protein, 25-100 μM of each peptide in PBS buffer, pH7.4. All assays were performed independently six times. Samples were generally prepared in 96-well plates at final volumes of 20 μL. The fluorescent dye SYPRO Orange (5000× concentrate in DMSO, ThermoFisher, S6650) was added to a final concentration of 8X. Reactions were run on QuantStudio 6 Flex Real-Time PCR system (Applied Biosystems, part of Life Technologies Corporation, CA) according to the manufacturer's recommendations using a melt protocol in 0.05-degree/see increments from 25° C. to 95° C. The Reporter Dye was “ROX” and quencher Dye and passive reference were selected as “None” for the melt curve according to manufacturer's instructions. The data were analyzed using Protein Thermal Shift™ Software v1.3 package (Applied Biosystems, CA).

Cx43 CT = biological target: T3, Cx43 CT (Rattus norvegicus, UniProt P08050); test: Protein thermal shift assay, Cx43 CT; format: binding; settings: 500 μg/ml protein, 25-100 μM peptide
T3 construct: CT: amino acids 255 to 382) alone; GST (N); made in house; host or cells: E. coli BL21
T3 sequence (P08050 255-382): as the sequence (P08050 255-382) above
Protocol: as §1

| Sequence | recovery of LV contractile performance during reperfusion (adult mouse hearts) | Cx43 S368 phosphorylation [1] | PDZ2 melt temperature (Tm) (ZO-1 PDZ2) | Cx43 CT melt temperature (Tm) (Cx43 CT) | PDZ2 melt temperature (Tm) (ZO-1 PDZ2; listed as M3) | recovery of LV function (adult mouse hearts; 20-minute peptide infusion at initiation of reperfusion (post-ischemic)) | cardiac muscle loss (adult mouse hearts; ex vivo I/R injury) | ability to induce S368 phosphorylation ([1]; greater than PKC ε+plus control, M1 AALAI or M4) |
| --- | --- | --- | --- | --- | --- | --- | --- | --- |
| RQPKIWFPNRRKPWKK RPRPAALAI (RQPKIWFPNRRKPWKKRPRPAALAI) [M1 AALAI] | no ability to improve recovery | neither M1 AALAI (SEQ ID NO: 134), M2 AALEI (SEQ ID NO: 135) nor M3 DDLAI (SEQ ID NO: 136) increased Cx43 S368 phosphorylation | did not alter the melt temperature of PDZ2 | no propensity to alter Cx43 CT thermal stability | – | – | – | – |
| RQPKIWFPNRRKPWKKRPRPDDLAI [M3 DDLAI] | no ability to improve recovery | neither M1 AALAI (SEQ ID NO: 134), M2 AALEI (SEQ ID NO: 135) nor M3 DDLAI (SEQ ID NO: 136) increased Cx43 S368 phosphorylation | evidence of significant interaction with its ZO-1-binding domain | no propensity to alter Cx43 CT thermal stability | significantly increase the Tm of | – | – | – |
| RQPKIWFPNRRKPWKKRPRPDDLE [alpha CT1-I] | significant functional recovery after I/R injury | significant increase in PKC ε-mediated phosphorylation of Cx43 CT | PDZ2 interaction incompetent | highly significant decreases in melt temperature | – | – | – | – |
| RQPKIWFPNRRKPWKKRPRPDDLEI [alpha CT1] | notable recovery of LV function during reperfusion; also recorded: significant functional recovery after I/R injury | – | significantly increase the Tm of; also recorded: increased the melt temperature of PDZ2 in a dose-dependent manner | highly significant decreases in melt temperature | – | did not result in significant recovery of LV function | reduce cardiac muscle loss by more than half | about 3 fold |
